How the values were obtained:
[1] = test system: pathogenic fungus or bacterium (Blumeria graminis, Pythium spec., Botrytis cinerea, Pseudomonas syringae and others); assay: Pathogen infection of transgenic Arabidopsis thaliana; type: in vivo; conditions: transgenic plants, sense orientation; fluorescence and light microscopy
[2] = test system: Blumeria graminis f.sp. hordei; assay: Transient transformation of barley leaf segments, powdery mildew penetration; type: cell-based, barley cv. Pallas; conditions: for haustorial growth of the fungus in transformed cells: Calcofluor staining, fluorescence microscopy; for effect on total number or number of attacked GFP-expressing cells: compared with control cDNA experiments; for average % RPE value (relative penetration efficiency): deviation from average penetration efficiency of the control; for reduction of penetration efficiency by Blumeria graminis f.sp. hordei: on average, six experiments, versus control cDNA (TR), 48 hours after inoculation
Method: Barley cv. Pallas leaf segments were transformed with a cDNA of Pp291 or Pp364 which were present in the GFP expression vector (green fluorescence protein). The leaves were subsequently inoculated with the pathogenic fungus Blumeria graminis f.sp. hordei (powdery mildew of barley), and the result was analyzed after 48 hours by means of light microscopy and fluorescence microscopy. The penetration into GFP-expressing cells was assessed by detecting haustoria in live cells and by assessing the fungal development in precisely those cells. […].
The transient transformation of barley was carried out with a method which had already been described for the biloistic introduction of cDNA into epidermal cells of barley leaves (Schweizer P et al. (1999) Mol Plant Microbe Interact 12:647-54; Schweizer P et al. (2000) Plant J 2000 24:895-903). Tungsten particles with a diameter of […] (particle density 25 mg/ml) were coated with cDNA together with plasmid DNA of the vector pGFP (GFP under the control of the CaMV 35S promoter) as transformation marker. To this end, the following amount of cDNA and reporter plasmid were used for coating purposes for each bombardment: 1 mg of pGFP and 2 mg of cDNA. To prepare the microcarriers, 55 mg of tungsten particles (M 17, diameter […]; Bio-Rad, Munich) were washed twice with 1 ml of autoclave distilled water and once with 1 ml of absolute ethanol, dried and taken up in 1 ml of 50% strength glycerol (approximately 50 mg/ml stock solution). The solution was diluted with 50% strength glycerol to 25 mg/ml, mixed thoroughly before use and suspended in an ultrasonic bath. To coat the microcarriers, 1 mg of plasmid, 2 mg of cDNA (1 mL), […] of tungsten particle suspension (25 mg/ml), […] of 1 M Ca(NO3)2 solution (pH 10) per bombardment were combined dropwise with constant mixing, left to stand for 10 minutes at RT and centrifuged briefly, and […] of supernatant were removed. The remainder, which contained the tungsten particles, is resuspended (ultrasonic bath) and employed in the experiment.
Barley primary leaf segments approximately 4 cm in length were used. The tissue was placed on 0.5% Phytagar (GibcoBRLt Life Technologiest, Karlsruhe) supplemented with […] benzimidazole in Petri dishes (diameter 6.5 cm); immediately prior to the particle bombardment, the edges were covered with a stencil with a rectangular slot 2.2 cm×2.3 cm in size. One after the other, the dishes were placed on the bottom of the vacuum chamber (Schweizer P et al. (1999) Mol Plant Microbe Interact 12:647-54) above which a nylon mesh (mesh size 0.2 mm, Millipore, Eschborn) had been inserted on a perforated board (5 cm above the bottom, 11 cm underneath the macrocarrier, see hereinbelow) to act as diffuser in order to diffuse particle aggregations and to slow down the particle stream. For each bombardment, the macrocarrier (plastic sterile filter holder 13 mm, Gelman Sciences, Swinney, UK) which had been attached at the top of the chamber was loaded with […] of DNA-coated tungsten particles (microcarrier, see hereinbelow). The pressure in the chamber was reduced by 0.9 bar using a membrane vacuum pump (Vacuubrand, Wertheim), and the surface of the plant tissue was bombarded with the tungsten particles at a helium gas pressure of 9 bar. The chamber was aerated immediately thereafter.
To label transformed cells, the leaves were bombarded with the plasmid (pGFP; pUC18-based vector, CaMV 35S promoter/terminator cassette with inserted GFP gene; Schweizer P et al. (1999) Mol Plant Microbe Interact 12:647-54; provided by Dr P. Schweizer, Schweizer P, Institute of Plant Genetics IPK, Gatersleben, Germany). Before carrying out the bombardment with another plasmid, the macrocarrier was cleaned thoroughly with water in each case. […]

[3] = HPLC analysis of DNPH-derivatized volatile aldehydes; type: biochemical; conditions: substrates 13-HPOTE and 9-HPODE, DNPH derivatives
From the text: The reaction of hydroperoxides with DES gives rise to divinyl ethers which hydrolyze in an acidic environment to give aldehydes. These aldehydes are volatile. In order to identify these aldehydes which are formed, they can be derivatized with DNPH (Kohlmann et al.; 1999, Eur. J. Biochem. 260, 885-895). The hydrazones thus formed are no longer volatile and can be identified with the aid of an HPLC analysis via their retention time.

## Pp364 cDNA: complete cDNA encoding the Physcomitrella patens divinyl ether synthase, used to transform barley and Arabidopsis
[1]
  resistance to pathogens in comparison with the wild type: increased resistance
[2]
  haustorial growth of the fungus in transformed cells: no haustorial growth takes place
  effect on total number or number of attacked GFP-expressing cells: no effect
  average % RPE value (relative penetration efficiency): −30%
  reduction of penetration efficiency by Blumeria graminis f.sp. hordei: 44%

B1: Pp291: Physcomitrella patens CYP74A allene oxide synthase, 475 amino acids, recombinantly expressed in E. coli (protein, listed as Physcomitrella patens)
chain: MAVPSSKLPLKAIPGDYGVPYFGAIKDRLDYFWLQGEEQFYRSRMAKYNSTVFRVNMPPGPPISEHPQVICLLDQKSFPILFDVSKVEKKDVFTGTYMPSVSFTSGYRVCSYLDPSEERHTKLKQWCFEVIAMNGRNFLPEFHKSIEESMVLWETSLAKGEKTSVSDEVKQFAFNFLMRAVCHHDPAAPGEYSLGRNGGPYATAWANPQLAPIAGQTGLPHVVEELVLHTVPLPSALVKKNYDALYNFIKNYATEALDRAEAMGIERNDATANLLFFLCFNAYGGFSIFFPLITILISSCGPELMHDLHDEVTKAVAATDGKVTLQSIENMPLVKSVVYEAFRFKPPVPYQYGKAKFDFTIENHENSFEVKKGEMLYGYQPIVMHDPKVFSDPDQFLPRRFMGPDGEKLIKYIFWSNGYETDEPTTANKQCAGKDLVVTMARAFVAEMFLRYKEYTLTMEGAGNATKVFFSDLKK
[3]
  formation of aldehydes in reaction mixture: No aldehydes were detected

B2: Pp364: Physcomitrella patens CYP74E divinyl ether synthase, 532 amino acids, recombinantly expressed in E. coli (protein, listed as Physcomitrella patens)
chain: MDRTLVLTCTTTCSHSAFRQSALPSNTSISVRLGTCSVRTQKRRTVVASLGNIETTSTSTVGQESNLPLREIPGSYGIPYLSQLLDRWTFFYREGEPQFWQSRMAKYGSTVIRSNMPPGWFWTDSRCIMLLDQKSYPTVFDYDKVDKYKAFAGTIMPSTEYNGGYEVCAYLDASDKKHEQLKGYCFELLKFSSSKWAREFHTAISETFNQWEGKLAQKTPALINPTLPESLFSFVINALTTARFDDSSIPDAEKPVCGDLQKWAGFQLMPVIRTGAPIYIEEMLHVAPIPASLTKGGYDKMVVFLQKYAAETLSIAEKFGLSQDEAVHNLIFFLILNAHGGFCRFLPVILREVAKNGQLQADLREEVRAAVKASGSDQVTMKAVMNDMPLVASTVFEALRFDPPVPFQYARAKKDFIIESHDARYQIKTGDFLGGVNYMVSRDPKVFTDRPNEFNARRFMGPEGDKLLAHLVWSNGRQTDETTVYTKQCAGKEIVPLTGRLLLAELFMRFDSFNIEGLEMEATFTSLTPRSD
[3]
  formation of aldehydes in reaction mixture: aldehydes are formed

B3: Pp291 cDNA: complete cDNA encoding the Physcomitrella patens allene oxide synthase, used to transform barley and Arabidopsis (nucleic acid, listed as Physcomitrella patens)
DNA: ATGGCAGTCCCTTCATCCAAGCTGCCGTTGAAGGCGATTCCTGGAGACTATGGAGTCCCCTACTTCGGTGCCATAAAGGATCGACTAGACTACTTTTGGTTGCAGGGGGAGGAGCAGTTTTACCGAAGCCGGATGGCCAAGTACAATAGCACGGTGTTTCGTGTCAACATGCCGCCTGGCCCTCCAATTTCCGAACACCCTCAAGTCATCTGCCTCTTGGATCAGAAAAGCTTTCCAATTCTGTTCGACGTTAGCAAGGTTGAGAAAAAGGACGTGTTCACAGGAACATACATGCCGAGTGTGAGCTTCACCAGCGGGTACCGCGTTTGCTCCTACTTGGATCCCTCTGAGGAACGCCACACGAAGCTCAAGCAATGGTGCTTTGAAGTCATTGCGATGAACGGGCGGAACTTTCTTCCCGAGTTTCACAAGTCGATTGAAGAGTCGATGGTGCTCTGGGAGACGAGTCTGGCCAAGGGCGAGAAGACTAGCGTATCGGATGAGGTGAAACAGTTCGCGTTTAATTTCCTGATGCGCGCTGTATGCCATCACGACCCCGCTGCGCCTGGAGAATACAGCTTAGGGCGTAATGGTGGCCCGTATGCAACCGCCTGGGCAAATCCCCAGCTCGCTCCGATTGCAGGACAGACGGGTCTCCCCCATGTCGTGGAGGAGCTCGTGTTACACACCGTCCCACTCCCCTCTGCCCTGGTCAAGAAGAACTACGATGCCCTCTACAATTTCATCAAAAACTACGCCACCGAGGCGCTGGATAGGGCTGAAGCTATGGGCATCGAGCGCAATGACGCCACTGCCAACCTGCTGTTCTTCCTTTGCTTTAACGCCTACGGCGGATTCAGCATCTTCTTCCCCCTCATCACTATCCTCATTTCTTCATGCGGTCCGGAGCTCATGCACGATCTCCACGACGAAGTCACCAAGGCCGTCGCCGCCACAGATGGGAAAGTCACTCTTCAATCCATCGAGAACATGCCATTGGTGAAGTCCGTCGTCTACGAAGCTTTCCGATTCAAGCCCCCAGTGCCATACCAATACGGCAAGGCCAAGTTCGACTTCACCATAGAGAACCACGAAAACTCCTTCGAGGTCAAGAAGGGAGAAATGCTGTATGGTTATCAACCTATCGTGATGCACGACCCCAAGGTCTTCTCGGACCCAGATCAGTTTCTACCTCGACGATTCATGGGCCCCGACGGCGAGAAGCTCATCAAATACATCTTCTGGTCCAATGGTTACGAGACTGACGAGCCGACTACCGCAAACAAGCAGTGCGCCGGAAAGGACTTGGTGGTCACAATGGCGCGAGCATTCGTCGCAGAAATGTTCTTGAGATATAAAGAGTATACCCTGACCATGGAGGGCGCAGGAAATGCGACCAAGGTTTTCTTTTCCGATCTCAAAAAGTGA
modifications: CDS (1)..(1428) Pp291 Allenoxid-Synthase
notes: complete cDNA encoding the Physcomitrella patens allene oxide synthase, used to transform barley and Arabidopsis
[1]
  resistance to pathogens in comparison with the wild type: increased resistance
[2]
  haustorial growth of the fungus in transformed cells: no haustorial growth takes place
  effect on total number or number of attacked GFP-expressing cells: no effect
  average % RPE value (relative penetration efficiency): −30%
  reduction of penetration efficiency by Blumeria graminis f.sp. hordei: 44%

Source: patent US7786348B2, “Methods for producing pathogen-resistant plants with allene oxide synthase and divinyl ether synthase, and the amino acid and nucleotide sequences thereof” (BASF Plant Science GmbH, priority 2001, dated 2010)
